Measurements from patent US20110202000A1 (MEDTRONIC, published 2011).

Key:
[1] = target: T1, Abeta42 beta amyloid peptide (UniProt P05067 672-713); assay: competition ELISA on coated beta amyloid, purified antibody, n=2; competitor biotinylated chimeric mouse 6E10
T1 construct: domain: Abeta42; also called Aβ42; beta amyloid (Covance)
Description: (§1) Binding of humanized variants were tested in the competition binding ELISA described in Example 1. Briefly, supernatants from the best expressing lines for each combination were quantified using an Fc capture, Kappa light chain detection ELISA in comparison to a IgG1/kappa standard. The quantified supernatants were then tested in a competition ELISA for binding to their target antigen, beta amyloid. 96 well maxisorb plates (Nunc-Fisher Scientific, Loughborough, UK) were coated overnight at 4° C. with 50 μl/well of 0.06125 μg/ml beta amyloid (Covance, UK) in carbonate buffer pH 9.6. […] The titrations, 50 μl/well, were added to washed (3× with PBS pH 7.4/0.5%BSA/0.05% Tween 20) assay plates and incubated at room temperature for 1 hour. Plates were washed as above and 100 μl/well of a 1/500 dilution of streptavidin HRP (Sigma, Poole, UK) in PBS pH 7.4/0.5% BSA/0.05% Tween was added and incubated for a further 1 hour at room temperature. […] After stopping the reaction with 50 μl/well 3M HCl, absorbance was measured at 450 nm and the binding curves of the test antibodies were compared to the mouse reference standard. Absorbance was plotted against sample concentration and straight lines were fitted through each of the data sets.
The purified antibodies were tested for binding to beta amyloid via competition ELISA as described above (n=2). Titrations of the test antibodies were done from 0.003 μg/ml to 16 μg/ml in duplicate. Absorbance at 450 nm was measured and this was plotted against test antibody concentration.

[2] = target: T1, Abeta42 beta amyloid peptide; assay: competition ELISA on coated beta amyloid, purified antibody (Table 4 experiment)
Description: as §1, with “hour.” for “hour. Plates were washed as above and 100 μl/well of a 1/500 dilution of streptavidin HRP (Sigma, Poole, UK) in PBS pH 7.4/0.5% BSA/0.05% Tween was added and incubated for a further 1 hour at room temperature.”
The purified antibodies were tested for binding to beta amyloid via competition ELISA as described above (n=2). […] Absorbance at 450 nm was measured and this was plotted against test antibody concentration.

[3] = target: T1, Abeta42 beta amyloid peptide; assay: competition ELISA on coated beta amyloid, NS0 supernatant; competitor biotinylated mouse 6E10
Description: 100 μl of the antibody mixes were transferred into the wells of Immulon Maxisorb plates precoated with 0.06125 μg/ml Abeta₄₂ beta amyloid peptide coated plates and incubated at room temperature for 1 hour. The plate was washed, and bound biotinylated mouse 6E10 was detected by adding a strepavidin-HRP conjugate (Sigma, Poole UK) (diluted at 1:500) and OPD substrate (Sigma, Poole UK). The assay was developed in the dark for 5 minutes before being stopped by the addition of 3M HCl. The assay plate was then read in a MRX TCII plate reader at absorbance 490 nm.
as §1

[4] = target: T2, Aβ40 peptide (UniProt P05067 672-711); assay: western immunoblot of Aβ40 peptide, antibody at 1000-fold dilution
T2 construct: domain: Aβ40; also called amyloid beta
T2 sequence (P05067 672-711 limits assumed): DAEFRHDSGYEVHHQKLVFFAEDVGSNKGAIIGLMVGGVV
Description: (§2) The resulting conjugated antibodies (IgG and F(ab)₂ fragments) were subjected to dialysis to separate conjugated from unconjugated antibodies. The conjugated IgG antibodies were tested for their ability to bind amyloid beta (Aβ40 and Aβ42), using a western immunoblotting assay. In brief, Aβ40 or Aβ42 peptides (0.5 μg in diluent; Covance) were diluted in 4 μl nanopure water and prepared with 2× sample buffer to run through 4-20% Pierce Precise Protein Gel at 55V for 15 min, and then at 100V for 55 min. The proteins were then transferred onto 0.2 μm nitrocellulose membrane at 6V for 30 min. The membrane was blocked with a solution of dried milk powder (5% in Tris-buffered saline with Tween20; TBST, 1 L distilled water, 8 g NaCl, 2.4 g Tris, pH 7.5 with HCl, 1 mL Tween20). Membranes were then incubated overnight with a 1000-fold dilution of unconjugated or PSA-conjugated 6E10 IgG or F(ab′)₂ preparations, washed thrice with TBST for 5 min each, incubated with 1:2000 dilution of HRP-conjugated goat anti-mouse secondary antibody, and washed twice again with TBST for 10 min each. The chemiluminescent signal was developed with ECL-Plus reagent and the membranes were exposed to Kodak films to illustrate the bands.

[5] = target: T1, Abeta42 beta amyloid peptide; assay: western immunoblot of Aβ42 peptide, antibody at 1000-fold dilution
Description: as §2

T1 sequence (P05067 672-713 limits assumed): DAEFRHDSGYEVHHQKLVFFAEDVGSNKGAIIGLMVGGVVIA

| Fold Difference (IC50 normalized to the reference) [1] [fold] | IC50 [1] [µg/mL] | fold difference in IC50 relative to mouse 6E10 (Binding Efficiencies Relative to Mouse MDT-2007) [3] [fold] | Binder | also measured |
| --- | --- | --- | --- | --- |
| 0.57 | 2.1 | 0.67 | MDT-2007 (composite human antibody sequence variant VH4/VK2) (antibody, V domains shown, Human IgG1/kappa (pANT15/pANT13)) VH: QVQLVQSGAEVKKPGASVKVSCTASGFNIKDTYIHWVRQARGQRLEWIGRFDPVNVNTRYDSRFRGRVTITSDASTNTAYMELSSLRSEDTAVYYCSRSYYNGRRRFTYWGQGTLVTVSS VL: DIVMTQSPSSLTASVGDRVTITCKASQSLLSSGNQKNYLTWYQQKPGQPPKLLIYWASIRESGVPDRFTGSGSGTFFTLTISSLQAEDVAVYYCQNDYNYPFTFGQGTKLEIK | fold increase in binding compared to the mouse reference [2]: 1.72 fold |
|  |  |  | PSA-conjugated 6E10 IgG anti-Aβ antibody (antibody, V domains shown, polysialic acid (PSA) conjugated; site and chain not stated; polysialic acid (PSA, 30 to 90 sialic acid units) conjugated by periodate oxidation and sodium cyanoborohydride; site and chain not stated, also called PSA-conjugated IgG anti-Aβ; conjugated IgG antibodies) VH: EVQLQQSGAELVKPGASVKLSCTASGFNIKDTYIHWVKQRPEQGLEWIGRFDPVNVNTRYDSRFRGKATITSDASSNTAYLHLNSLTSEDTAVYYCSRSYYNGRRRFTYWGQGTLVTVSA VL: DIVMTQSPSSLTVTAGEKVALTCKASQSLLSSGNQKNYLTWYQQKPGQPPKLLIYWASIRESGVPDRFTGSGSGTFFTLTISSVQAEDLAVYYCQNDYNYPFTFGSGTKLEIK | binding result [4]: binds; binding result [5]: binds |
| 1 | 3.6 |  | chimeric 6E10 antibody (mouse 6E10 V regions, human IgG1/kappa constant regions) (antibody, V domains shown, also called chimeric mouse 6E10 antibody; chimeric antibody) VH: EVQLQQSGAELVKPGASVKLSCTASGFNIKDTYIHWVKQRPEQGLEWIGRFDPVNVNTRYDSRFRGKATITSDASSNTAYLHLNSLTSEDTAVYYCSRSYYNGRRRFTYWGQGTLVTVSA VL: DIVMTQSPSSLTVTAGEKVALTCKASQSLLSSGNQKNYLTWYQQKPGQPPKLLIYWASIRESGVPDRFTGSGSGTFFTLTISSVQAEDLAVYYCQNDYNYPFTFGSGTKLEIK |  |
|  |  | 1.57 | composite human antibody variant VH3/VK3 (antibody, human IgG1, V domains shown, Human IgG1/kappa (pANT15/pANT13); Tested as quantified NS0 supernatant) VH: QVQLVQSGAEVKKPGASVKVSCTASGFNIKDTYIHWVRQARGQRLEWIGRFDPVNVNTRYDSRFRGRATITSDASTNTAYMELSSLRSEDTAVYYCSRSYYNGRRRFTYWGQGTLVTVSS VL: DIVMTQSPSSLTASVGDRVTITCKASQSLLSSGNQKNYLTWYQQKPGQPPKLLIYWASIRESGVPDRFSGSGSGTDFTLTISSLQAEDVAVYYCQNDYNYPFTFGQGTKLEIK |  |
|  |  | 0.78 | composite human antibody variant VH1/VK1 (antibody, human IgG1, V domains shown, Human IgG1/kappa (pANT15/pANT13); Tested as quantified NS0 supernatant) VH: EVQLVQSGAELKKPGASVKVSCTASGFNIKDTYIHWVRQAPGQRLEWIGRFDPVNVNTRYDSRFRGRATITSDASTNTAYMELSSLRSEDTAVYYCSRSYYNGRRRFTYWGQGTLVTVSS VL: DIVMTQSPDSLTVSLGERATINCKASQSLLSSGNQKNYLTWYQQKPGQPPKLLIYWASIRESGVPDRFTGSGSGTFFTLTISSLQAEDVAVYYCQNDYNYPFTFGQGTKLEIK |  |
|  |  | 1.93 | composite human antibody variant VH1/VK3 (antibody, human IgG1, V domains shown, Human IgG1/kappa (pANT15/pANT13); Tested as quantified NS0 supernatant) VH: EVQLVQSGAELKKPGASVKVSCTASGFNIKDTYIHWVRQAPGQRLEWIGRFDPVNVNTRYDSRFRGRATITSDASTNTAYMELSSLRSEDTAVYYCSRSYYNGRRRFTYWGQGTLVTVSS VL: DIVMTQSPSSLTASVGDRVTITCKASQSLLSSGNQKNYLTWYQQKPGQPPKLLIYWASIRESGVPDRFSGSGSGTDFTLTISSLQAEDVAVYYCQNDYNYPFTFGQGTKLEIK |  |
|  |  | 1.36 | composite human antibody variant VH4/VK3 (antibody, human IgG1, V domains shown, Human IgG1/kappa (pANT15/pANT13); Tested as quantified NS0 supernatant) VH: QVQLVQSGAEVKKPGASVKVSCTASGFNIKDTYIHWVRQARGQRLEWIGRFDPVNVNTRYDSRFRGRVTITSDASTNTAYMELSSLRSEDTAVYYCSRSYYNGRRRFTYWGQGTLVTVSS VL: DIVMTQSPSSLTASVGDRVTITCKASQSLLSSGNQKNYLTWYQQKPGQPPKLLIYWASIRESGVPDRFSGSGSGTDFTLTISSLQAEDVAVYYCQNDYNYPFTFGQGTKLEIK |  |
|  |  | 1.02 | composite human antibody variant VH5/VK3 (antibody, human IgG1, V domains shown, Human IgG1/kappa (pANT15/pANT13); Tested as quantified NS0 supernatant) VH: QVQLVQSGAEVKKPGASVKVSCTASGFNIKDTYIHWVRQARGQRLEWIGRFDPVNVNTRYDSRFRGRVTITSDASTSTAYMELSSLRSEDTAVYYCSRSYYNGRRRFTYWGQGTLVTVSS VL: DIVMTQSPSSLTASVGDRVTITCKASQSLLSSGNQKNYLTWYQQKPGQPPKLLIYWASIRESGVPDRFSGSGSGTDFTLTISSLQAEDVAVYYCQNDYNYPFTFGQGTKLEIK |  |
|  |  | 1.1 | composite human antibody variant VH2/VK2 (antibody, human IgG1, V domains shown, Human IgG1/kappa (pANT15/pANT13); Tested as quantified NS0 supernatant) VH: EVQLVQSGAEVKKPGASVKVSCTASGFNIKDTYIHWVRQARGQRLEWIGRFDPVNVNTRYDSRFRGRATITSDASTNTAYMELSSLRSEDTAVYYCSRSYYNGRRRFTYWGQGTLVTVSS VL: DIVMTQSPSSLTASVGDRVTITCKASQSLLSSGNQKNYLTWYQQKPGQPPKLLIYWASIRESGVPDRFTGSGSGTFFTLTISSLQAEDVAVYYCQNDYNYPFTFGQGTKLEIK |  |
|  |  | 0.96 | composite human antibody variant VH2/VK3 (antibody, human IgG1, V domains shown, Human IgG1/kappa (pANT15/pANT13); Tested as quantified NS0 supernatant) VH: EVQLVQSGAEVKKPGASVKVSCTASGFNIKDTYIHWVRQARGQRLEWIGRFDPVNVNTRYDSRFRGRATITSDASTNTAYMELSSLRSEDTAVYYCSRSYYNGRRRFTYWGQGTLVTVSS VL: DIVMTQSPSSLTASVGDRVTITCKASQSLLSSGNQKNYLTWYQQKPGQPPKLLIYWASIRESGVPDRFSGSGSGTDFTLTISSLQAEDVAVYYCQNDYNYPFTFGQGTKLEIK |  |
| 0.91 | 3.3 | 0.8 | composite human antibody variant VH5/VK1 (antibody, human IgG1, V domains shown, Human IgG1/kappa (pANT15/pANT13)) VH: QVQLVQSGAEVKKPGASVKVSCTASGFNIKDTYIHWVRQARGQRLEWIGRFDPVNVNTRYDSRFRGRVTITSDASTSTAYMELSSLRSEDTAVYYCSRSYYNGRRRFTYWGQGTLVTVSS VL: DIVMTQSPDSLTVSLGERATINCKASQSLLSSGNQKNYLTWYQQKPGQPPKLLIYWASIRESGVPDRFTGSGSGTFFTLTISSLQAEDVAVYYCQNDYNYPFTFGQGTKLEIK |  |
| 0.72 | 2.6 | 0.72 | composite human antibody variant VH5/VK2 (antibody, human IgG1, V domains shown, Human IgG1/kappa (pANT15/pANT13)) VH: QVQLVQSGAEVKKPGASVKVSCTASGFNIKDTYIHWVRQARGQRLEWIGRFDPVNVNTRYDSRFRGRVTITSDASTSTAYMELSSLRSEDTAVYYCSRSYYNGRRRFTYWGQGTLVTVSS VL: DIVMTQSPSSLTASVGDRVTITCKASQSLLSSGNQKNYLTWYQQKPGQPPKLLIYWASIRESGVPDRFTGSGSGTFFTLTISSLQAEDVAVYYCQNDYNYPFTFGQGTKLEIK |  |
| 1.14 | 4.1 | 0.94 | composite human antibody variant VH4/VK1 (antibody, human IgG1, V domains shown, Human IgG1/kappa (pANT15/pANT13)) VH: QVQLVQSGAEVKKPGASVKVSCTASGFNIKDTYIHWVRQARGQRLEWIGRFDPVNVNTRYDSRFRGRVTITSDASTNTAYMELSSLRSEDTAVYYCSRSYYNGRRRFTYWGQGTLVTVSS VL: DIVMTQSPDSLTVSLGERATINCKASQSLLSSGNQKNYLTWYQQKPGQPPKLLIYWASIRESGVPDRFTGSGSGTFFTLTISSLQAEDVAVYYCQNDYNYPFTFGQGTKLEIK |  |
